{"source": "patent US20240141059A1", "about": "(Bristol-Myers Squibb, published 2024)"}
{"biological_target": "T1, human CD73 on cells (human, UniProt P21589 27-549)", "T1 sequence (looked up)": "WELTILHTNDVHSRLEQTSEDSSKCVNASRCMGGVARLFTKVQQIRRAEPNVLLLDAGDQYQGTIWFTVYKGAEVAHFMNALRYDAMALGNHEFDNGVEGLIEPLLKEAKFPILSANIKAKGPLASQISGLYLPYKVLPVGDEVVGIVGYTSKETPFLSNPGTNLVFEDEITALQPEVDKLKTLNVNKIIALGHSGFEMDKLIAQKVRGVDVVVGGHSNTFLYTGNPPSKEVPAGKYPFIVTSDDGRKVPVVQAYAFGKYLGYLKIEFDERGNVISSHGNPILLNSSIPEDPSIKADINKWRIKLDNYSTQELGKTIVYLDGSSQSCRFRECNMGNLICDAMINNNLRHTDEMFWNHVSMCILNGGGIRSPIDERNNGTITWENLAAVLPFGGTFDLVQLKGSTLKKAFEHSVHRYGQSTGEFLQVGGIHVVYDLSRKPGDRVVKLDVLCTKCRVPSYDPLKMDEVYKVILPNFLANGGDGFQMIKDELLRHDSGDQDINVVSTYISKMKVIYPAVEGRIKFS", "assay": "cell-based or functional assay", "units": {"internalization T1/2, Calu6": "min", "internalization T1/2, NCI-H292": "min", "internalization Ymax, Calu6": "%", "internalization Ymax, NCI-H292": "%"}}
{"binder": "CD73.4-IgG2.3-plusGGG (antibody, also called mAb-CD73.4-IgG2.3-plusGGG; CD73.4-Vh-hHC-IgG2.3-plusGGG) heavy: QVQLVESGGGVVQPGRSLRLSCAASGFTFSNYGMHWVRQAPGKGLEWVAVILYDGSNKYYPDSVKGRFTISRDNSKNTLYLQMNSLRAEDTAVYYCARGGSSWYPDSFDIWGQGTMVTVSSASTKGPSVFPLAPCSRSTSESTAALGCLVKDYFPEPVTVSWNSGALTSGVHTFPAVLQSSGLYSLSSVVTVPSSNFGTQTYTCNVDHKPSNTKVDKTVERKSCVEGGGCPPCPAPPVAGPSVFLFPPKPKDTLMISRTPEVTCVVVDVSHEDPEVQFNWYVDGVEVHNAKTKPREEQFNSTFRVVSVLTVVHQDWLNGKEYKCKVSNKGLPAPIEKTISKTKGQPREPQVYTLPPSREEMTKNQVSLTCLVKGFYPSDIAVEWESNGQPENNYKTTPPMLDSDGSFFLYSKLTVDKSRWQQGNVFSCSVMHEALHNHYTQKSLSLSPGK light: not shown", "internalization T1/2, Calu6": 20.1, "internalization T1/2, NCI-H292": 16.3, "internalization Ymax, Calu6": 81.7, "internalization Ymax, NCI-H292": 91.6}
{"binder": "CD73.4-IgG2.5-plusTHT (antibody, also called mAb-CD73.4-IgG2.5plusTHT/LC; CD73.4-Vh-hHC-IgG2.5plusTHT/LC) heavy: QVQLVESGGGVVQPGRSLRLSCAASGFTFSNYGMHWVRQAPGKGLEWVAVILYDGSNKYYPDSVKGRFTISRDNSKNTLYLQMNSLRAEDTAVYYCARGGSSWYPDSFDIWGQGTMVTVSSASTKGPSVFPLAPSSRSTSESTAALGCLVKDYFPEPVTVSWNSGALTSGVHTFPAVLQSSGLYSLSSVVTVPSSNFGTQTYTCNVDHKPSNTKVDKTVERKCCVETHTCPPCPAPPVAGPSVFLFPPKPKDTLMISRTPEVTCVVVDVSHEDPEVQFNWYVDGVEVHNAKTKPREEQFNSTFRVVSVLTVVHQDWLNGKEYKCKVSNKGLPAPIEKTISKTKGQPREPQVYTLPPSREEMTKNQVSLTCLVKGFYPSDIAVEWESNGQPENNYKTTPPMLDSDGSFFLYSKLTVDKSRWQQGNVFSCSVMHEALHNHYTQKSLSLSPGK light: not shown", "internalization T1/2, Calu6": 17.2, "internalization T1/2, NCI-H292": 15.4, "internalization Ymax, Calu6": 80.2, "internalization Ymax, NCI-H292": 89.6}
{"binder": "CD73.4-IgG2.5G1-KH (antibody, also called mAb-CD73.4-IgG2.5G1-KH; CD73.4-Vh-hHC-IgG2.5G1-KH) heavy: QVQLVESGGGVVQPGRSLRLSCAASGFTFSNYGMHWVRQAPGKGLEWVAVILYDGSNKYYPDSVKGRFTISRDNSKNTLYLQMNSLRAEDTAVYYCARGGSSWYPDSFDIWGQGTMVTVSSASTKGPSVFPLAPSSRSTSESTAALGCLVKDYFPEPVTVSWNSGALTSGVHTFPAVLQSSGLYSLSSVVTVPSSNFGTQTYTCNVDHKPSNTKVDKTVERKCCVECPPCPAPPVAGPSVFLFPPKPKDTLMISRTPEVTCVVVDVSHEDPEVKFNWYVDGVEVHNAKTKPREEQYNSTYRVVSVLTVLHQDWLNGKEYKCKVSNKALPAPIEKTISKAKGQPREPQVYTLPPSREEMTKNQVSLTCLVKGFYPSDIAVEWESNGQPENNYKTTPPVLDSDGSFFLYSKLTVDKSRWQQGNVFSCSVMHEALHNHYTQKSLSLSPGK light: not shown", "internalization T1/2, Calu6": 17, "internalization T1/2, NCI-H292": 15.4, "internalization Ymax, Calu6": 76, "internalization Ymax, NCI-H292": 90.8}
{"binder": "CD73.4-IgG2.5G1.1f-KH (antibody, also called mAb-CD73.4-IgG2.5G1.1f-KH; CD73.4-Vh-hHC-IgG2.5G1.1f-KH) heavy: QVQLVESGGGVVQPGRSLRLSCAASGFTFSNYGMHWVRQAPGKGLEWVAVILYDGSNKYYPDSVKGRFTISRDNSKNTLYLQMNSLRAEDTAVYYCARGGSSWYPDSFDIWGQGTMVTVSSASTKGPSVFPLAPSSRSTSESTAALGCLVKDYFPEPVTVSWNSGALTSGVHTFPAVLQSSGLYSLSSVVTVPSSNFGTQTYTCNVDHKPSNTKVDKTVERKCCVECPPCPAPPVAGPSVFLFPPKPKDTLMISRTPEVTCVVVDVSHEDPEVKFNWYVDGVEVHNAKTKPREEQYNSTYRVVSVLTVLHQDWLNGKEYKCKVSNKALPSSIEKTISKAKGQPREPQVYTLPPSREEMTKNQVSLTCLVKGFYPSDIAVEWESNGQPENNYKTTPPVLDSDGSFFLYSKLTVDKSRWQQGNVFSCSVMHEALHNHYTQKSLSLSPGK light: not shown", "internalization T1/2, Calu6": 21.2, "internalization T1/2, NCI-H292": 18, "internalization Ymax, Calu6": 79.6, "internalization Ymax, NCI-H292": 90.9}
{"binder": "CD73.4-IgG2.5 (antibody, also called mAb-CD73.4-IgG2.5; CD73.4-Vh-hHC-IgG2.5) heavy: QVQLVESGGGVVQPGRSLRLSCAASGFTFSNYGMHWVRQAPGKGLEWVAVILYDGSNKYYPDSVKGRFTISRDNSKNTLYLQMNSLRAEDTAVYYCARGGSSWYPDSFDIWGQGTMVTVSSASTKGPSVFPLAPSSRSTSESTAALGCLVKDYFPEPVTVSWNSGALTSGVHTFPAVLQSSGLYSLSSVVTVPSSNFGTQTYTCNVDHKPSNTKVDKTVERKCCVECPPCPAPPVAGPSVFLFPPKPKDTLMISRTPEVTCVVVDVSHEDPEVQFNWYVDGVEVHNAKTKPREEQFNSTFRVVSVLTVVHQDWLNGKEYKCKVSNKGLPAPIEKTISKTKGQPREPQVYTLPPSREEMTKNQVSLTCLVKGFYPSDIAVEWESNGQPENNYKTTPPMLDSDGSFFLYSKLTVDKSRWQQGNVFSCSVMHEALHNHYTQKSLSLSPGK light: not shown", "internalization T1/2, Calu6": 20.9, "internalization T1/2, NCI-H292": 18.3, "internalization Ymax, Calu6": 79, "internalization Ymax, NCI-H292": 89.6}
{"binder": "CD73.4-IgG2.3G1-KH (antibody, also called mAb-CD73.4-IgG2.3G1-KH; CD73.4-Vh-hHC-IgG2.3G1-KH) heavy: QVQLVESGGGVVQPGRSLRLSCAASGFTFSNYGMHWVRQAPGKGLEWVAVILYDGSNKYYPDSVKGRFTISRDNSKNTLYLQMNSLRAEDTAVYYCARGGSSWYPDSFDIWGQGTMVTVSSASTKGPSVFPLAPCSRSTSESTAALGCLVKDYFPEPVTVSWNSGALTSGVHTFPAVLQSSGLYSLSSVVTVPSSNFGTQTYTCNVDHKPSNTKVDKTVERKSCVECPPCPAPPVAGPSVFLFPPKPKDTLMISRTPEVTCVVVDVSHEDPEVKFNWYVDGVEVHNAKTKPREEQYNSTYRVVSVLTVLHQDWLNGKEYKCKVSNKALPAPIEKTISKAKGQPREPQVYTLPPSREEMTKNQVSLTCLVKGFYPSDIAVEWESNGQPENNYKTTPPVLDSDGSFFLYSKLTVDKSRWQQGNVFSCSVMHEALHNHYTQKSLSLSPGK light: not shown", "internalization T1/2, Calu6": 23.8, "internalization T1/2, NCI-H292": 16.8, "internalization Ymax, Calu6": 81.6, "internalization Ymax, NCI-H292": 91.6}
